Data on 6 molecules can be found in patent US20040248129A1, “Rhesus monkey, dog and feeret melanin-concentrating hormone type 1 receptor” (priority 2001, published 2004).

“And” between values parts separate entries of the source, which are not always exact repeats. Equal entries are not always repeated. Positions of bridges follow the written chain, without caps; N, C: chain ends. No end group written: not given here.

For assay [1], the target named is T1, rhesus MCH-1R (Macaca mulatta, UniProt Q8MJ89).
T1 construct: expressed in transfected cells; host or cells: HEK293T
Description: Radioligand binding to adherent HEK293T cells transfected with rhesus MCH-1R. The arrangement: species or system rhesus monkey. The method, then: HEK293T cells were seeded into 24-well culture plates coated with poly-D-Lys at 1×10^5 cells/well and were cultured during over-night. The adherent cells were transfected with pEF1/V5-HisB/rhesus MCH-1R plasmid (see Example 2). Forty-eight hours after transfection, the transfected monolayer cells were rinsed with the assay buffer (Hanks' balanced salt solution containing 20 mM HEPES, 0.2% BSA and 100 μg/ml bacitracin, pH 7.4). The cells were then incubated in 250 μl well of the same buffer with [^125I]-MCH (100 pM, NEN Life Science Products, Boston, Mass.) or [^125I]-[Phe^13,Tyr^19]-MCH (100 pM, NEN Life Science Products) for 30 minutes at 37° C. After the incubation, the cells were washed three times with the ice cold assay buffer and lysed with 500 μl/well of 2 M NaOH. The lysates were transferred into test tubes and the cell- bound radioactivity was measured by a COBLA Quantum γ-counter (Packard Instrument, Meriden, CT). Nonspecific binding was defined in the presence of 1 μM cold MCH or [Phe^13,Tyr^19]-MCH for the corresponding radio ligands.

Assay [2] relates to mock transfected cells (HEK293T). The assay can be described thus: Radioligand binding to mock transfected HEK293T cells. The arrangement: species or system human.
Assay [3] deals with T1, rhesus MCH-1R. The assay can be described thus: Intracellular calcium (fura-2) in HEK293T cells transiently expressing rhesus MCH-1R. Format: cell-based, rhesus monkey. The following applies: read-out: EC50, increase in intracellular calcium levels. An excerpt: The entire coding sequence of rhesus MCH-1R was cloned into EcoRI-NotI site of pEF1lV5-HisB plasmid vector (Invitrogen, Carlsbad, Calif.). The resultant construct was transfected into HEK293T cells using LipofectAmine PLUS (Life Technologies, Rockville, Md.) according to the manufacture's instructions. Human embryonic kidney cells constitutively expressing SV40 large T antigen (HEK-293T) were maintained in Dulbecco's modified Eagle medium (Life Technologies) supplemented with 10% fetal bovine serum, 100 units/ml penicillin-G and 100 μg/ml streptomycin at 37° C. with 5% CO2 in a humidified atmosphere.
The intracellular calcium ion concentration ([Ca^2+]i) was measured fluorometrically using a Ca^2+-sensitive fluorescent dye, fura-2. HEK293T cells transiently transfected with pEF1N5-HisB plasmid vector harboring rhesus MCH-1R cDNA were harvested by phosphate-buffered saline containing 2 mM EDTA 48 hours after transfection, and washed once with the assay buffer (Hanks' balanced salt solution containing 20 mM HEPES and 0.1% BSA, pH 7.4). […] Data were analyzed using the software GraphPad Prism Version 3.0 (GraphPad Software, Inc., San Diego, Calif., USA).

For assay [4], the target named is T1, rhesus MCH-1R. Description: Inhibition of [125I]-MCH binding to rhesus MCH-1R expressed on HEK293T cells (filtration). The arrangement: species or system rhesus monkey. Particulars: 100 pM [125I]-MCH, 4×10^5 cells/tube, 30 min, 37° C. Here is the method:
(§1) HEK293T cells transfected with pEF1IV5-HisB/MCH1R plasmid were harvested by phosphate-buffered saline containing 2 mM EDTA 48 hours after transfection, and washed once with the assay buffer (Hanks' balanced salt solution containing 20 mM HEPES, 0.2% BSA and 100 μg/ml bacitracin, pH 7.4). The cells (4×10^5 cells/tube) were then incubated in 250 μl/tube of the same buffer with 100 pM […] for 30 minutes at 37° C. After the incubation, bound and free [^25I]-MCH were separated by filtration using a Unifilter GF/B glass filter (Packard Instrument) presoaked with 0.3% polyethylenimine. The remaining radioactivity on the filter was quantitated using a TopCount HTS (Packard instrument) with a Microscint 0 scintillation cocktail (Packard instrument). Specific binding was defined as the difference between total binding and nonspecific binding in the presence of 1 μM cold MCH. Data were analyzed using GraphPad Prism Version 3.0.

In assay [5] the target is rhesus monkey MCH-1R (melanin-concentrating hormone type 1 receptor) (rhesus monkey) (UniProt Q8MJ89). Description: radioligand binding, 100 pM, HEK293T cells expressing rhesus MCH-1R, replicate 1.
For assay [6] the target is unchanged. Description: radioligand binding, 100 pM, HEK293T cells expressing rhesus MCH-1R, replicate 2.
For assay [7] the target is unchanged. Description: radioligand binding, 100 pM, HEK293T cells expressing rhesus MCH-1R, replicate 3.
The target is the same in assay [8]. The assay can be described thus: radioligand binding, 100 pM, in the presence of 1 uM cold [Phe13,Tyr19]-MCH, HEK293T cells expressing rhesus MCH-1R, replicate 1.
For assay [9] the target is unchanged. The assay can be described thus: radioligand binding, 100 pM, in the presence of 1 uM cold [Phe13,Tyr19]-MCH, HEK293T cells expressing rhesus MCH-1R, replicate 2.
Assay [10] has the same target. The assay can be described thus: radioligand binding, 100 pM, in the presence of 1 uM cold [Phe13,Tyr19]-MCH, HEK293T cells expressing rhesus MCH-1R, replicate 3.
For assay [11], the target named is T2, rhesus monkey MCH-1R (melanin-concentrating hormone type 1 receptor) (rhesus monkey), Q8MJ89.
T2 chain: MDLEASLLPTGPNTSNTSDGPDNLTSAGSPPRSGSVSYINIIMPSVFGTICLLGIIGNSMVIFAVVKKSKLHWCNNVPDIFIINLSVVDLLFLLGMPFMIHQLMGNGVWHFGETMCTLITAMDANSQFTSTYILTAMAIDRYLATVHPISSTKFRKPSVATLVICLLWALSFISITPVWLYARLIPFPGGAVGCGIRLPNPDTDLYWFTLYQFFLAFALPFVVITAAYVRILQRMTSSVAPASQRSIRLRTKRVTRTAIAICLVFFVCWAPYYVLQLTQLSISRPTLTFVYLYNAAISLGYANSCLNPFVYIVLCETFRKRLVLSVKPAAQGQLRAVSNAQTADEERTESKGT
Description: cell-based or functional assay.

Assay [12] deals with T2, rhesus monkey MCH-1R …. The assay can be described thus: displacement of 100 pM [125I]-MCH from HEK293T cells expressing rhesus MCH-1R, filtration.
The target of assay [13] is T3, rhesus monkey MCH-1R (melanin-concentrating hormone type 1 receptor) (rhesus monkey, UniProt Q8MJ89 1-353). The assay can be described thus: cell-based or functional assay.
The target of assay [14] is T3, rhesus monkey MCH-1R …. Description: displacement of 100 pM [125I]-MCH from HEK293T cells expressing rhesus MCH-1R, filtration. Here is the method:
as §1, with “(4×10⁵” for “(4×10^5”, “[²⁵I]-MCH” for “[^25I]-MCH”
IC₅₀ values of MCH and [Phe¹³,Tyr¹⁹]-MCH in this experiment were calculated as 0.074 and 0.14 nM, respectively.

Where [15] appears, read: Rhesus MCH-1R transfected HEK293T, 100 pM radioligand, 30 min, 37° C.
Where [16] appears, read: Mock transfected HEK293T, 100 pM radioligand.

Regarding [^125I]-[Phe^13,Tyr^19]-MCH, the “Binding to HEK293T cells expressing rhesus MCH-1R (in words)” value in [1] (100 pM radioligand) is listed as “bound to the HEK293T cells expressing rhesus MCH-1R with good windows”. Moreover, the “[125I]-[Phe13,Tyr19]-MCH binding, Nonspecific binding” value in assay [1] (Rhesus MCH-1R transfected HEK293T, 100 pM radioligand in the presence of 1 μM cold [Phe13,Tyr19]-MCH) was 1524.1 cpm and 2023.5 cpm and 1029.6 cpm; in [2] (Mock transfected HEK293T, 100 pM radioligand in the presence of 1 μM cold [Phe13,Tyr19]-MCH) it was 539.7 cpm and 537.7 cpm and 557.8 cpm. The “[125I]-[Phe13,Tyr19]-MCH binding, Total binding” value in [1] (setting [15]) was 5353.0 cpm and 5542.3 cpm and 6345.9 cpm; in assay [2] (setting [16]), 708.9 cpm and 663.3 cpm and 771.5 cpm. In addition, the “Specific binding into mock transfected cells (in words)” value in assay [2] (100 pM radioligand) was “Specific binding was not observed”.
As for [^125I]-MCH, the “Binding to HEK293T cells expressing rhesus MCH-1R (in words)” value in assay [1] (100 pM radioligand) is “bound to the HEK293T cells expressing rhesus MCH-1R with good windows”. For the same molecule, the “[125I]-MCH binding, Total binding” value in assay [1] (setting [15]) was 2542.8 cpm and 2893.4 cpm and 2315.5 cpm; in assay [2] (setting [16]), 209.9 cpm and 215.8 cpm and 239.8 cpm. Besides, in assay [2] (100 pM radioligand), the “Specific binding into mock transfected cells (in words)” value is “Specific binding was not observed”. In addition, the “[125I]-MCH binding, Nonspecific binding” value in assay [2] (Mock transfected HEK293T, 100 pM radioligand in the presence of 1 μM cold MCH) was 172.0 cpm and 180.9 cpm and 184.1 cpm.
On to `CSCC[C@@H]1NC(=O)[C@@H](NC(=O)[C@H](CCCNC(=N)N)NC(=O)[C@H](CC(C)C)NC(=O)[C@H](CCSC)NC(=O)[C@H](CC(=O)O)NC(=O)[C@H](Cc2ccccc2)NC(=O)[C@@H](N)CC(=O)O)CSSC[C@@H](C(=O)N[C@@H](Cc2c[nH]c3ccccc23)C(=O)N[C@@H](CCC(N)=O)C(=O)N[C@H](C(=O)O)C(C)C)NC(=O)[C@@H]2CCCN2C(=O)[C@H](CCCNC(=N)N)NC(=O)[C@H](Cc2ccc(O)cc2)NC(=O)[C@H](C(C)C)NC(=O)[C@H](CCCNC(=N)N)NC(=O)CNC(=O)[C@H](CC(C)C)NC1=O` [MCH, Melanin-concentrating hormone], for which, in assay [3], the EC50 came to 0.3 nM. Moreover, the IC50 in assay [4] is 0.074 nM.
Turning to “[^125I]-[Phe^13,Tyr^19]-MCH (from UniProt P20382 147-165) (peptide)”, the Total binding (cpm) came out at 5350 cpm in assay [5], 5540 cpm in assay [6] and 6350 cpm in assay [7]. For the same molecule, the figures for the Nonspecific binding (cpm) in [8], in [9] and in [10] were 1520 cpm, 2020 cpm and 1030 cpm, respectively.

B1: MCH (melanin-concentrating hormone), unlabelled, P20382 147-165 (peptide, UniProt P20382 147-165, looked up)
peptide: DFDMLRCMLGRVYRPCWQV
modifications: not checked
With B1, the increase in intracellular calcium levels (fura-2) in HEK293T cells transiently expressing rhesus MCH-1R, EC50 in [11] came out at 0.3 nM. Further, in [12], the IC50 came to 0.074 nM.

B2: [Phe^13,Tyr^19]-MCH, unlabelled (peptide)
peptide: DFDMLRCMLGRVFRPCWQY
modifications: disulfide 7-16 (inferred)
notes: Only the new residues (Phe13, Tyr19) are printed; also called cold [Phe^13,Tyr^19]-MCH
Turning to B2, the “increase in intracellular calcium levels (fura-2) in HEK293T cells transiently expressing rhesus MCH-1R, EC50” value in [13] was found to be 1.1 nM. For the same molecule, in [14], the 50% inhibitory concentration (IC50) came to 0.14 nM.
